Bridge positions count the residues as written; N and C are the ends. Square brackets hold non-standard residues; d marks the D form. Ends that are not written are not given here. * marks the point of attachment. 5‑TAMRA = CN(C)c1ccc2c(-c3ccc(C(=O)*)cc3C(=O)[O-])c3ccc(N(C)C)cc3[o+]c2c1; n3 = azido unnatural amino acid, 3 CH2 in side chain; Lys(N3) = [N-]=[N+]=NCCCC[C@H](N)C(=O)O; Dap(N3) = [N-]=[N+]=NC[C@H](N)C(=O)O; Aha = [N-]=[N+]=NCC[C@H](N)C(=O)O; m3c = not defined here; m3 = not defined here; m4 = not defined here; m5 = not defined here; Ahx = NCCCCCC(=O)O
T1: human tankyrase 2 ankyrin repeat cluster 4 (TNKS2 ARC4, residues 488-649) (human, UniProt Q9H2K2 488-649)
T1 sequence (looked up): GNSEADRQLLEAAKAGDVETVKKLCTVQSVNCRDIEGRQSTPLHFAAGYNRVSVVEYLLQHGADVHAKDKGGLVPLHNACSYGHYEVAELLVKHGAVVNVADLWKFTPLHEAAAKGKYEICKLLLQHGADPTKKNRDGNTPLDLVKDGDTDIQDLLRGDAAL


Experiments:
[1] = target: T1, human tankyrase 2 ankyrin repeat …; assay: fluorescence polarisation; direct: TNKS2 ARC4 or TNKS1 ARC2-3 diluted 2-fold serially (40-0 uM, 50 uL) and mixed with TAMRA-labeled peptide (20 nM, 50 uL); 50 mM HEPES pH 7.5, 300 mM NaCl, 2 mM DTT, 0.05% Tween 20; 30 min, 25 C; settings: both partners purified
[2] = target: T1, human tankyrase 2 ankyrin repeat …; assay: fluorescence polarisation; competition: unlabeled peptide or Axin1 fragment diluted 2-fold serially against TAMRA-labeled pep1 (20 nM) with TNKS2 ARC4 (3 uM); PBS, 0.05% Tween 20; 30 min, 25 C; settings: both partners purified

Kd [1] [µM]	Kd [2] [µM]	Binder
7.7 ± 0.3	–	{5‑TAMRA-Ahx}-RE[Dap(N3)]GDG[Aha]E (triazole 3-7 via m5; reading uncertain) [T-cp4n12m5]
4.2 ± 0.12	–	{5‑TAMRA-Ahx}-RE[n3]GDG[Aha]E (triazole 3-7 via m5; reading uncertain) [T-cp4n32m5]
15.5 ± 0.6	–	{5‑TAMRA-Ahx}-RE[Aha]GDG[n3]E (triazole 3-7 via m3c; reading uncertain) [T-cp4n23m3c]
12.5 ± 0.5	–	{5‑TAMRA-Ahx}-RE[Dap(N3)]GDG[Aha]E (triazole 3-7 via m3; reading uncertain) [T-cp4n12m3]
13.6 ± 1.1	–	{5‑TAMRA-Ahx}-RE[Aha]GDG[Dap(N3)]E (triazole 3-7 via m5; reading uncertain) [T-cp4n21m5]
61.8 ± 33.9	–	{5‑TAMRA-Ahx}-RE[Dap(N3)]GDG[Dap(N3)]E (triazole 3-7 via m4; reading uncertain) [T-cp4n1m4]
–	13.9 ± 2.1	Ac-RE[Lys(N3)]GDGE[Lys(N3)] (bridge 3-8; not fully specified (bridges)) [cp5n4m5c]
1.7 ± 0.05	–	{5‑TAMRA-Ahx}-RE[Aha]GDG[n3]E (triazole 3-7 via m4; reading uncertain) [T-cp4n23m4]
–	14.7 ± 0.8	Ac-R[n3]AGDG[n3]E (bridge 2-7; not fully specified (bridges)) [cp2n3m7N]
15.4 ± 0.6	–	{5‑TAMRA-Ahx}-RE[n3]GDG[n3]E (bridge 3-7; not fully specified (bridges)) [T-cp4n3m3c]
–	53.3 ± 8.3	Ac-R[Aha]AGDG[Aha]E (bridge 2-7; not fully specified (bridges)) [cp2n2m7N]
–	7.9 ± 1.2	Ac-RE[Lys(N3)]GDGE[Lys(N3)] (bridge 3-8; not fully specified (bridges)) [cp5n4m5]
6.1 ± 0.2	–	{5‑TAMRA-Ahx}-RE[n3]GDG[Aha]E (triazole 3-7 via m3; reading uncertain) [T-cp4n32m3]
8.9 ± 0.3	–	{5‑TAMRA-Ahx}-RE[Dap(N3)]GDG[Aha]E (triazole 3-7 via m4; reading uncertain) [T-cp4n12m4]
11.1 ± 0.9	–	{5‑TAMRA-Ahx}-RE[n3]GDG[Aha]E (triazole 3-7 via m4; reading uncertain) [T-cp4n32m4]
4.3 ± 0.2	–	{5‑TAMRA-Ahx}-RE[Aha]GDG[n3]E (triazole 3-7 via m5; reading uncertain) [T-cp4n23m5]
15.3 ± 0.6	–	{5‑TAMRA-Ahx}-RE[n3]GDG[Aha]E (triazole 3-7 via m3c; reading uncertain) [T-cp4n32m3c]
5.8 ± 0.2	–	{5‑TAMRA-Ahx}-RE[Aha]GDG[Dap(N3)]E (triazole 3-7 via m4; reading uncertain) [T-cp4n21m4]
22.8 ± 1.3	–	{5‑TAMRA-Ahx}-RE[Aha]GDG[Dap(N3)]E (triazole 3-7 via m3; reading uncertain) [T-cp4n21m3]

Reference: publication PMC5358875 (Journal of the American Chemical Society, 2017)
